Assay: yeast display, Sf9 membrane polyspecificity reagent, FACS + sequencing; frameworks hold sequencing errors
Summary of the method: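 Polyreactivity labels are assigned by the sorting gate from which each nanobody was recovered. The gates were low and high (top ~1%), set on anti-HA fluorescence for expression and streptavidin fluorescence for reagent binding. Before sorting, galactose-induced (36–48 hours) yeast display cells were stained for 1 hour at 4 °C with 10% biotinylated, detergent-solubilized Sf9 membrane reagent.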

Row | Sequence | polyreactivity (PSR sort gate)
1 | QVQLVESGGGLVQAGGSLRLSCAASGRTFVVNAKGWYRQAPGKEREFVAAISYRGDSTYYSDSVKGRFTISRDNAKNTVYLQMNSLKPEDTAVYYCAARVLGPGRRFYYWVQGTQVTVSS | high polyreactivity
2 | QVQQQESGGGLVQACGSLPLSCAASVSIFTQATMGWYRQPPGKERELVAAINFGSSTYYADSVKGRFTISRDNAKSTVYLQMNSLKPEDTSVYYCAVRALWYDLHDYWGQGTQVTVSS | high polyreactivity
3 | QVQLVESGGGLVQAGGSLRLSCAASGSIFYVYAMGRYRQAPGKERELVASINKSGGSTYYADSVKGRFTISRDNAKNTVYLQMNSLKPEDTAVYYCAARTGWPRVGFQYPAHVGFDYWGQGTQVTVSS | low polyreactivity
4 | QVQLVESVGGLVQAGGSLRLSCAASGSTIQGNSMGWYRQAHGKERELVAAISRSGGSTYADSVKGRFTISRDNAKNTVYLEMHSLKPEDTAVFYCAAYSGVGYLWFDYWGQGTQVTVSS | low polyreactivity
5 | QVQLVESGGGLVQAGGSLRLSCAASGIIYYANVMGWYRQAPGKERELVAGISRNGGRTYYADSVKGRFTISRDNAKNTVYLQMNSLKPEDTAVYYCAARGSYTSIFDYWGQGTQVTVSS | high polyreactivity
6 | QVQLVESGGGLVQAGGSLRLSCAASGSIFGYNDMGWYRQAPGKERELVATITWGGGRTRYADSVKGRFTISRDNAKNTVYFQMNSLKPEDTAVYYCAAGYYRLWVRYDYWGQGTQVTVSS | low polyreactivity
7 | QVQLVESGGGLVQAGGSLRLSCAASGIIFRTNAMGWYRQAPGKERDFVAAISAGGTRTYYADSVKGRFTISRDNAKNTVYLQMNSLKPEDTAVYYCAARYPEYETEDDYWGQGTQVTVSS | high polyreactivity
8 | QVQLVESRGGLVQAGGSLRLSCAASGSTFTYNAMGWYRQAPGKERELDAAISSDGRTYYADSVKGRFTISRDNAKNTVYLQMNSLQPEDTALYYCAAMYWFYVYPFTEYDYWGQGTQVTVSS | low polyreactivity
9 | QVQLVESGGGLVQAGGSLRLSCAASGSTFNGNAMGWYRQAPGKERELVARISFDGTSTYYADSVKGRFTISRDNAKNTVYLQMNSLKPEDTAVDYCNVLFPRDHGFPGYGYWGQGTQVTVSS | low polyreactivity
10 | QVQLVESGGGLVQAGGSLRLSCAASGRTFLGYAMGWYRQAPGKERELVAAITSGTRTYADSVKGRFTISRDNAKYTVYLQMNSLKPEDTAVYYCAALRWQYRLYSYSFRSGRFDYWGQGTQVTVSS | low polyreactivity
11 | QVQLVESGGCLVQAGGSLRLSCAACGITFSGYDMGWYRQAPGKERELVADITISTGSTYYADSVKGRFTISRDNAKNTVYLQMNSLKPEDTAVYYCAASPFDYWYDYYGLYKEYYYWRQGTQVTVSS | low polyreactivity
12 | QVQLQVSGGDLVPAGGSLRLSCAGSGTIYGLTSMAWYRQAPGKEREFVAAITDGGNANYADSVKGRFTISRDNAKNTVYLQMISLKPEDTAVYYCAVLFSDDAYYAYWGQGTQVTVSS | low polyreactivity
13 | QVQLVESGGGLVQAGGSLRLSCAASGFIFDINAMGWYRQAPGKERELVAAISYSGGSTYYADSVKGRFTISRDNAKNNVYLQMNSLKPEDTAVYYCAADSGPDSDEGDYWGQGTQVTVSS | low polyreactivity
14 | QVQLVESGGGLVQAGGSLRVSCAASGRTFARYAKGWYRQAPGKERELVAVISRTGSTYYADSVKGRFTISRDNAKNTVYLQMNSLKPEDTAVYYCATVYYYLAYGWSYSDMDYWGQGTQVTVSS | high polyreactivity
15 | QVQLVESGGGLVQAGGSLRLSCAASGRTFRYYAMGWYRPAPGKERELVAAINWSGGTTYYADSVKGRFTISRDNAKNTVYLQMNSLKPEDTAVYYCAAVYGYPSTSRYDYWGQGTQVTVSS | high polyreactivity
16 | QVQLVESGGGLVQAGGSLRLSCAASGRTLARNAMGWYRQAPGKERELVASINGRTTRTYYADSVKGRFTISRDNAKNTVYLQMNSLKPEDPAVYYCAARATNVYSKMDYWGQGTQVTVSS | high polyreactivity
17 | QVQLVESGGGLVQAGGSLRLSAATGSTLAGKTMGWYRQASRKERELVAAINDSGGSTYYADSVKGRFTISRDNAKNSVYLQMNSLKPEDTAVYYCNADGYAYIEDGYDYWGQCTQVTVSS | low polyreactivity
18 | QVQLVESGGGLVQAGGSLRLSCAASGGIFEAYVMGWYRQAPGKERELVAAISFRGGSTYYADSVQGRFTISRVNAKNSVYLQMNSLKPEDTAVYYCAADYRHQGYDYWGQGTQVTVSS | low polyreactivity
19 | QVQLVESGGGLVQAGGSLRLSCAASGIIFPYYAMGWYRQAPGKERELVAAINSSGGSTFYAHSVKGRFTISRDNAKNTVYLQMNSLKPVVTAVYYCAAETLRYRWSLYYWGQGTQVTVSS | high polyreactivity
20 | QVQLVESGGGLVQAGGSLRLSCAASGRIFPKNTMGWYRQAPGKERELVAAINWNGGRTYYADSVKGRFTISRDNAKNTVYLQMNSLKPEDTAVYYCAKDGYWDFDYWGQGTQVTVSS | low polyreactivity
21 | QVQLVESGGGLVQAGGSLRLSCAASGRTFFKYVKGWYRQAPGKERELVAAISSGGSTNYADSVKGRFTISRDNAKNTVYLQMNSVKPEDTAVYSCAASRYRGYYYWGQGTQVTVSS | high polyreactivity
22 | QVQLVESGGGLVQAGGSLRLSCAASGITSSYAMGWYRQAPGKERELVAAISRGGSTYYADSVKGRFTISRDNAKNTVYLLLNSLKPEDTAVYYCNKRRYPYGWGQGTLVTVSS | high polyreactivity

Row | Sequence | polyreactivity (PSR sort gate)
23 | QVQLVESGGGLDQAGGSLRLSCAASGYTFGRNAMGWYRQAPGKERELVATISQRGGSTYYADSVKGRFTISRDNANNTVYLQMNSLKPEDTAVYYCAAGPIYRYRRYYYWGQGTQVTVSS | high polyreactivity
24 | QVQLVESGGGLVQARGSLRLSCAASGSTFSRNVMGWYRQATGKERELVAAISRGGSTNYADSVKGRFTISRDNAKNTVYLQMNSLKPEDTAVDYCAARSYGSTGPHGLKWVSYDYWGQGTQVTVSS | low polyreactivity
25 | QVQLVESGGGLVQAGGSLRLSCAASGRTFVVNDMGWYRQAPGKERELVAAINYNAGSTFYADSVKGRFTISRYNAKKTVYYQMNSLKPEDTAVYYCATDVYGYVEYDYWGQGTQVTVSS | low polyreactivity
26 | QVQLVDSGGGLVQAGGSLRLICAASGRTIWYYAMGWYRQAPGKERELLASITRSGGSTYADSVKGRFTISRDNAKNSVYLQMYSLKPEDTAVDYCAATRPRIPVYQNNYGYWGQGTQVTVSS | high polyreactivity
27 | QVQLVESGGGLVQAGGSLRLSCAASGLTFPYYSMGWYRQAPGKERVLVAAITKSGGSTYADSVKGRFTISRDNAKNTVYLQMNSLKPEDTAVYYCAAGRRKYGTKGRGDYWGQGTQVTVSS | low polyreactivity
28 | QVQLVESGGGLVQAGGSLRLSCAASGSILLVYAMGWYRQAPGKERELVATITWTDGSTYYADSVKGRFTISRDNAKNTVYLQMNSLKPEDTAVYYCNAGASVNSPLVAEYYYWGQGTQVTVSS | low polyreactivity
29 | QVQLVESGGCLVQAGGSLRLSCAASGSIIYCYAMGWYRQAPGKERELVADISRGGITYYADSVKGRFTISRDNAKNTVYLQMNSLKPEDTAVYYCSKTHYGVQRLDSWGQGTQVTVSS | low polyreactivity
30 | QVQLVESGGGLVQAGGSLRLSCAASGGTFQYHAMGWYRQAPGKERELVAAITRSGGSTYYADSVKGRFTISRDNAKNTVYLQMNSLKPEDTAVYYCAVRYVYGYPRYNYWGQGTQVTVSS | high polyreactivity
31 | QVQLVESGGGLVQAGGSLRLSCAASGFIFRGYAMGWYRQAPGKERELVAAINSGGSTNYADSVKGRFTISRDNAKNTVYLQMNSLKPEDTAVYYCAARVKTSYRYLRTYNYWGQGTQVTVSS | high polyreactivity
32 | QVQLVESGGGLVQAGGSLRLSCAASGFTFVDNAMGWYRQPPRKERELVAAISWTGVGSTYYADSVKGRFTISRDNAKNTDYLQMNSLKPEDTAVYYCAADGLSRGVPDEFDYWGQGTQVTVSS | low polyreactivity
33 | QVQLVESGGGLVQAGGSLRLSCAASGFTFSSNAMGWYRQAPGKERELVAAIRGSDGNTYYADSVKGRFTISRDNAKNTVYLQMNSLKPEDTAVYYCNARSYGYRTSRARYNYWGQGTQVTVSS | high polyreactivity
34 | QVQLVESGGGLVQAGGSLRLSCAASGRTLYYYAMGWYRQEPGKERELVAAISWSGGRTYYADSVKGRFTISRDNAKNTVYLQMNSLKAEDTAVYYCAAQYISRGYTVDYWGQGTQVTVSS | high polyreactivity
35 | QVQLVESGGGLVQAGGSLRLSCAASGRTFYWNTMGWYRQAPGKERELVAAINYSGGSTYYADSVKGRFTISRDNAKNTVYLQMNSLKPEDTAVYYCAAYFHGYKSQHRARSEYNYWGQGTQVTVSS | high polyreactivity
36 | QVQLVESGGGLVQAGGSLRLSCAASGSIFPDYTMGWYRQAPGKERELVAAITRSGDSTYYADSVKGRFTISRDNAKNTVYLQMNSLKPEDTAVYYCARDAFSVSDFSYASIEYDYWGQGTQVTVSS | low polyreactivity
37 | QVQLVESGGGLVQAGGSLRLSCAASGRIFTINAMGWYRQAPGKERELVAAITGSAASTYYADSVKGRFTISRDNAKNTVYLQMNSLKPEDTAVYYCAAGYRRIPYEYWGQATQVTVSS | high polyreactivity
38 | QVQLVESGGGLVQAGGTLRLSCAASGSTFIGNAMGWYRQAPGKVRELVATITSGDSKYADSVKGRFTISRDNAKNTVYLQMNSLKPEDTAVYYCNADPWDIGSTFELDYWGQGTQVTVSS | low polyreactivity
39 | QVQLVESGGGLVQAGGSLRLSCAASGSIIGIYALGWYRQAPGKERELVAAISWSGGSTYYADSVKGRFTISRDNAKNTVYLQMNSLKPEDTAVYYCAARGHYQYYWGQGTQVTVSS | low polyreactivity
40 | QVQLVESGGGLVQAGGSLRLSCAASGRTFAWYAMGWYRQAPGKERELVAAISSGGSTYYADSVKGRFTISRDNAKNTVYLQMNSLKPEDTAVYYCAAEWHYIYAYDSWGQGTQVTVSS | low polyreactivity
41 | QVQLVESGGGLVQAGGSLRLSCASSGNTFTVNAMGWYRQAPGKERELVAAINYSGGSTYYADSVKGRFTISRDNAKNTVYLQMNSLKPEDTAVYYCAASPDELLYEMYYWGQGTQVTVSS | low polyreactivity
42 | QVQLVESGGGLVQGGGSLRLSCAASGSTFWANAMGWYRQATGKERELVAGITWNAGSTYYADSVKGRFTISRDNAKNPVYLQMNRLKPEDTAVFYCAASYHFQGWGPGYNSWGQGTQVTVSS | low polyreactivity
43 | QVQLVESGGGLVQAGGSLRLSCAASGRIFYSYAMGWYRQAPGKERELVATISSGGSTNYADSVKGRFTISRDNAKNTVYLQMNSLKPEDTAVYYCARDSTYSSYTSNDYWGQGTQVTVSS | high polyreactivity

Source: the nanobody polyreactivity screen of Harvey et al. (2022)
